Consider two molecules from patent publication US20190177391A1, “ANGIOPOIETIN-LIKE PROTEIN 8 (ANGPTL8)” (BAYLOR RESEARCH INSTITUTE, priority 2016, published 2019).

One data set has as its system Notch1. Kind of data set: Notch1 expression in HL-1 atria muscle cells treated with ADM. The conditions noted are these: HL-1 cells; ADM 0.25, 0.5, 1.0 μM, 48 hrs. Type of data set: cell-based, mouse.
The nature of data set [1]: ELISA for fasting plasma human ANGPTL8. Type of data set: in vivo, rat. The note with it: protein therapy; intramuscular daily for 14 days, 5, 20, 40 μg/kg/day; day 3, 7, 10 and 14. Here is the method: (§1) There were 120 rats divided into three control groups of 30 rats each and a treatment group of 30 rats: (1) normal control rats; (2) ADM injection only; (3) ADM plus UTMD with a DsRed reporter gene (pXL-BASII-CI-DsRed/pCI-hyPB); (4) ADM plus UTMD with ANGPTL8 (pXL-BASII-CI-ANGPTL8/pCI-hyPB). All rats were euthanized at 3 days, 7 days, 14 days, 21 days and 28 days after UTMD. The thymidine analog, 5-bromo-2-deoxyuridine (BrdU) (100 mg/kg) was injected intraperitoneally 6 hours prior to euthanizing.
15 rats divided into (1) normal control rats; (2) ADM plus Saline inject rats; (3) ADM plus ANGPTL8 protein at dose of 5 μg/kg/day intramuscular inject for 14 days; (4) ADM plus ANGPTL8 protein at dose of 20 μg/kg/day intramuscular inject for 14 days; (5) ADM plus ANGPTL8 protein at dose of 40 μg/kg/day intramuscular inject for 14 days; All rats were euthanized at 14 days after starting ANGTPL8 protein inject. The thymidine analog, 5-bromo-2-deoxyuridine (BrdU) (100 mg/kg) was injected intraperitoneally 6 hours prior to euthanasia. Human recombinant protein ANGTPL8 protein was purchased from Phoenix Pharmaceuticals (Cat #056-61, Burlingame, Calif., USA).
Fasting venous blood was collected in EDTA tubes from the tail vein, and plasma lipids were measured using standard enzymatic assays. Human ANGTPL8 was measured using ELISA (Phoenix Pharmaceuticals).
In general terms: ELISA stands for enzyme-linked immunosorbent assay.

Data set [2] has as its system rat hearts with established adriamycin cardiomyopathy. The data set is described as follows: Echocardiography of heart structure and function in established adriamycin cardiomyopathy. Type of data set: in vivo. The conditions noted are these: protein therapy; 5, 20, 40 μg/kg/day intramuscular for 14 days; ADM cardiomyopathy rats. Here is the method:
The protocol was planned to test the hypothesis that delivery of ANGPTL8 by UTMD could reverse established adriamycin (ADM) cardiomyopathy defined as a fractional shortening <30% by echocardiography after injection of ADM (Iliskovic, et al., 1997) at total dose of 15 mg/kg/ip, 2.5 mg/kg/ip 6 times over 2 weeks.
as §1
(§2) 15 rats divided into (1) normal control rats; (2) ADM plus Saline inject rats; (3) ADM plus ANGPTL8 protein at dose of 5 μg/kg/day intramuscular inject for 14 days; (4) ADM plus ANGPTL8 protein at dose of 20 μg/kg/day intramuscular inject for 14 days; (5) ADM plus ANGPTL8 protein at dose of 40 μg/kg/day intramuscular inject for 14 days; All rats were euthanized at 14 days after starting ANGTPL8 protein inject. The thymidine analog, 5-bromo-2-deoxyuridine (BrdU) (100 mg/kg) was injected intraperitoneally 6 hours prior to euthanasia. […]

Another data set deals with ISL-1. Kind of data set: ISL-1 positive cardiac progenitor cells in epicardium and sub-epicardium (staining, qRT-PCR). The data set is classed as in vivo, rat. The note with it: protein injection, dose dependent manner, after 14 days treatment. Here is the method: as §1, §2
Total RNA was isolated from 100 mg of pancreas, liver and left quadratic skeletal muscle using the RNeasy mini kit (Qiagen). Real-time quantitative RT-PCR (qRT-PCR) analysis was performed on an ABI 7700 Sequence Detector (Applied Biosystems, Grand Island, N.Y., USA) using SYBR Green (RT2 SYBR Green qPCR Kit; Qiagen, Boston, Mass., USA). […]

As for `COc1cccc2c1C(=O)c1c(O)c3c(c(O)c1C2=O)C[C@@](O)(C(=O)CO)C[C@@H]3O[C@H]1C[C@H](N)[C@H](O)[C@H](C)O1` [ADM, adriamycin], the Notch1 expression result with Notch1 is listed as “significantly inhibited”.

B1: ANGPTL8 protein: Human recombinant ANGPTL8 protein purchased from Phoenix Pharmaceuticals (Cat #056-61), injected intramuscularly (protein, UniProt Q6UXH0 22-198, looked up)
Angiopoietin-like protein 8: APMGGPELAQHEELTLLFHGTLQLGQALNGVYRTTEGRLTKARNSLGLYGRTIELLGQEVSRGRDAAQELRASLLETQMEEDILQLQAEATAEVLGEVAQAQKVLRDSVQRLEVQLRSAWLGPAYREFEVLKAHADKQSHILWALTGHVQRQRREMVAQQHRLRQIQERLHTAALPA
For B1, the “human ANGPTL8 in fasting plasma” value in data set [1] is “detected”. In data set [2], the LV fractional shortening result is on record as “some degree of restoration” and the LV mass result is reported as “some degree of restoration”. The “ISL-1 positive cells in epicardial layer” value with ISL-1 is on record as “activated”.
